Data taken from US20100260765A1 (AstraZeneca / MedImmune, published 2010).

B1: 27A3 (antibody, V domains shown)
VH: QLQLQESGPGLVKPSETLSLTCTVSGGSISSRSDYWGWIRQPPGKGLEWIGTIYYSGDTYYNPSLKSRVTISVDTSKNQFSLKLSSVTAADTAVYYCARQQLVLYYFDYWGQGTLVTVSS
VL: EIVLTQSPGTLSLSPGERATLSCRASQSVSSSYLAWYQQKPGQAPRLLIYATSNRATGIPDRFSGSGSGTDFTLTISRLEPEDFAVYYCQQHGSSPPLTFGGGTKVEIK
notes: Fully human monoclonal antibody from a XenoMouse hybridoma (IgG2 or IgG4 strain), purified
B2: 30H10 (antibody, V domains shown)
VH: EVQLLESGGGLVQPGGSLRLSCAASGFTFSNYAMSWVRQAPGKGLEWVSAISGSGGITYYADSVKGRFTISRDNSKNTLFLQMNSLRAEDTAVYYCAKASGDNWGQGTLVSVSS
VL: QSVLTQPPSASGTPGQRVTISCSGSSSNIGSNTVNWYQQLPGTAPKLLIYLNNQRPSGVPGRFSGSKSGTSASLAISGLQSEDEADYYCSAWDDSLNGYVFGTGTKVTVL
notes: as for B1
B3: 29H3 (antibody, V domains shown)
VH: QVQLVQSGAEVKKPGASVKVSCKASGYTFTSYDINWVRQATGQGLEWMGWMNPNSGKTGYAQKFQGRVTMTRNTSINTAYMELSSLRSEDTAVYYCARGGYSNLGWFDPWGQGTLVTVSS
VL: DIQMTQSPSSVSASVGDRVTITCRASQGISSWLVWYHQKPGKAPKLLIYGASSLQSGVPSRFSGSGSGTDFTLTISSLQPEDFATYYCQQANNFPFTFGPGTKVDIK
notes: as for B1
B4: 32G7 (antibody, V domains shown)
VH: EVQLVESGGGLVKPGGSLRLSCAASGFTISSYSMNWVRQAPGKGLEWVSFISSRSNYIYYADSVKGRFTISRDNAKNSLYLQMNSLRAEDTAVYYCSKDDWFEELWGQGTLVTVSS
VL: DIQMTQSPSSLSASVGDRVTITCRASQDIRNDLGWYQQKPGKAPKRLIYAASSLQSGVPSRFSGSGSGTEFTLTISSLQPEDFATYYCLQHNSFPWTFGQGTKVEIK
notes: as for B1

Columns and labels:
[1] = target: T1, whole KDR-ECD (Cat. # 676490, Calbiochem) (human, UniProt P35968 20-764); assay: ELISA, KDR-ECD coat 5 ug/mL, antibody 1 ug/mL
T1 construct: extracellular domain; Bought soluble protein; also called soluble KDR; VEGF Receptor 2 D1-7
T1 sequence (P35968 20-764): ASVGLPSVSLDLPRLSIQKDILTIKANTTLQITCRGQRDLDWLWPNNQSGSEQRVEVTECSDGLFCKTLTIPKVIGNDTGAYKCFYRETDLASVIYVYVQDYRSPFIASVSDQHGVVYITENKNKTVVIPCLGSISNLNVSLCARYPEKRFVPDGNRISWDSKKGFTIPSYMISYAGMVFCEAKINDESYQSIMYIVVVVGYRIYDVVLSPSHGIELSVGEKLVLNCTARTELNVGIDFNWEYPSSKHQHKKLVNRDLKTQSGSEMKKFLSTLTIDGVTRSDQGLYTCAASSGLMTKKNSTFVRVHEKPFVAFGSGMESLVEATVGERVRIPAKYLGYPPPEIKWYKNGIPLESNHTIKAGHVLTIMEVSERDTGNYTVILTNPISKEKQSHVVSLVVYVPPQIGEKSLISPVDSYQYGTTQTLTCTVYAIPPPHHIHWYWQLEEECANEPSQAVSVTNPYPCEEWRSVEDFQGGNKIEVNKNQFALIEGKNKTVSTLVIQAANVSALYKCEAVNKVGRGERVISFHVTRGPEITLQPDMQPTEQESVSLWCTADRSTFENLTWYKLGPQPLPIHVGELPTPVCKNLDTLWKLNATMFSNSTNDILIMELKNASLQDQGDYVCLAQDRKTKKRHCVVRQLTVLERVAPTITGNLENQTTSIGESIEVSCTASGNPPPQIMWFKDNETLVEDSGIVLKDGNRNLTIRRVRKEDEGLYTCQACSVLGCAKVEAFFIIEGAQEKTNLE
Protocol: (§1) The cross-reactivity of purified antibodies was tested against KDR mouse ortholog KDR mouse ortholog (mouse VEGFR2, or Flk-1) and human VEGFR1 (Flt-1). The ability of the antibodies to bind soluble KDR Ig4-7 domain and to the entire KDR extracellular domain (ECD) was also measured.
(§2) Cross-reactivity experiments were carried out and measured using an ELISA based assay as described in Example 6. […] Antibody controls included IgG1 and IgG4 (Sigma-Aldrich, Cat. #15154 and #14639, respectively).

[2] = target: T2, human KDR (human, UniProt P35968 20-1356); assay: FACS competition on 293T/human KDR transfectants; antibody 5 ug/mL first, then competitor VEGF165 50 ng/mL; inhibition of VEGF binding
T2 construct: whole, on cells; also called VEGFR2; endogenously-expressed KDR in HUVEC cells
T2 sequence (P35968 20-1356): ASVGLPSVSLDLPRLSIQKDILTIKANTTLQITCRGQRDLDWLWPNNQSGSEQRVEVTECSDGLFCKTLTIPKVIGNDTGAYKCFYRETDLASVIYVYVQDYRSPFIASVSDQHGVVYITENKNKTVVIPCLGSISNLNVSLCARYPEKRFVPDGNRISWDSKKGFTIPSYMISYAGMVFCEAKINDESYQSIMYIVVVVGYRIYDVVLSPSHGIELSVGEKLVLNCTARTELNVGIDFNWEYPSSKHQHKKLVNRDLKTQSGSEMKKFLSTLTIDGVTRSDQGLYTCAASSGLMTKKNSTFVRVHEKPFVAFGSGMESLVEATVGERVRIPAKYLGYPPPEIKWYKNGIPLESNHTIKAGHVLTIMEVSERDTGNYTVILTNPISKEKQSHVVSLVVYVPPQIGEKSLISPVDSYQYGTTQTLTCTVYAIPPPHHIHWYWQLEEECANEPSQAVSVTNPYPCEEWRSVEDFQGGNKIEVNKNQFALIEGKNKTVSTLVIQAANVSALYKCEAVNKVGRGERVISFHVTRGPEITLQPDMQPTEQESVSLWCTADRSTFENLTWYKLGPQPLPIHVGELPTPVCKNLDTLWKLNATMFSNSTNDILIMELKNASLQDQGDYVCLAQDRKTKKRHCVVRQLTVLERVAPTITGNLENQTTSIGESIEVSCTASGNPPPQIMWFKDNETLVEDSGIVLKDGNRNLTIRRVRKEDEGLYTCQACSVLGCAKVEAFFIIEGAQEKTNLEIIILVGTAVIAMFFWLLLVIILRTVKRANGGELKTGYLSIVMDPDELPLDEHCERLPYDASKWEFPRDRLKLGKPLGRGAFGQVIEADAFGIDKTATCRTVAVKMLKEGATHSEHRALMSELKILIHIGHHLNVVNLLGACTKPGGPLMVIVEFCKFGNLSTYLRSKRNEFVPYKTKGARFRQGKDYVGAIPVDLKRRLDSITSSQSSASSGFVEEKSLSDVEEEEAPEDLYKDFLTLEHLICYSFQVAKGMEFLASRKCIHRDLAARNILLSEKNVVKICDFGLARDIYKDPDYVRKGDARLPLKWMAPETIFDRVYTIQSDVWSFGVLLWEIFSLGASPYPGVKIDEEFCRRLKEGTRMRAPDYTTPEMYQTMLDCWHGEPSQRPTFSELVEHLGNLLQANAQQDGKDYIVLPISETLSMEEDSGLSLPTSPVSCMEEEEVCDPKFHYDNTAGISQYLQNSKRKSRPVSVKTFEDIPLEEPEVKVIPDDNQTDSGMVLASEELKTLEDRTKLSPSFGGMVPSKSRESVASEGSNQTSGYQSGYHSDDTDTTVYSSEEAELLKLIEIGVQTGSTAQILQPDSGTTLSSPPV
Protocol: (§3) Transfected cells were then seeded at 50,000 cells/well and incubated with 5 μg/mL of candidate antibody for one hour at 4° C. […] After washing, the cells were incubated with Cy5-conjugated rabbit anti-goat antibody plus 7AAD for 15 minutes at 4° C.

[3] = target: T3, cynomolgus KDR (cynomolgus monkey, UniProt A0A2K5VE63 20-1356); assay: FACS on Cyno KDR/293T transfectants, antibody 5 ug/mL
T3 construct: whole, on cells; also called Cyno KDR
T3 sequence (A0A2K5VE63 entry or part of it): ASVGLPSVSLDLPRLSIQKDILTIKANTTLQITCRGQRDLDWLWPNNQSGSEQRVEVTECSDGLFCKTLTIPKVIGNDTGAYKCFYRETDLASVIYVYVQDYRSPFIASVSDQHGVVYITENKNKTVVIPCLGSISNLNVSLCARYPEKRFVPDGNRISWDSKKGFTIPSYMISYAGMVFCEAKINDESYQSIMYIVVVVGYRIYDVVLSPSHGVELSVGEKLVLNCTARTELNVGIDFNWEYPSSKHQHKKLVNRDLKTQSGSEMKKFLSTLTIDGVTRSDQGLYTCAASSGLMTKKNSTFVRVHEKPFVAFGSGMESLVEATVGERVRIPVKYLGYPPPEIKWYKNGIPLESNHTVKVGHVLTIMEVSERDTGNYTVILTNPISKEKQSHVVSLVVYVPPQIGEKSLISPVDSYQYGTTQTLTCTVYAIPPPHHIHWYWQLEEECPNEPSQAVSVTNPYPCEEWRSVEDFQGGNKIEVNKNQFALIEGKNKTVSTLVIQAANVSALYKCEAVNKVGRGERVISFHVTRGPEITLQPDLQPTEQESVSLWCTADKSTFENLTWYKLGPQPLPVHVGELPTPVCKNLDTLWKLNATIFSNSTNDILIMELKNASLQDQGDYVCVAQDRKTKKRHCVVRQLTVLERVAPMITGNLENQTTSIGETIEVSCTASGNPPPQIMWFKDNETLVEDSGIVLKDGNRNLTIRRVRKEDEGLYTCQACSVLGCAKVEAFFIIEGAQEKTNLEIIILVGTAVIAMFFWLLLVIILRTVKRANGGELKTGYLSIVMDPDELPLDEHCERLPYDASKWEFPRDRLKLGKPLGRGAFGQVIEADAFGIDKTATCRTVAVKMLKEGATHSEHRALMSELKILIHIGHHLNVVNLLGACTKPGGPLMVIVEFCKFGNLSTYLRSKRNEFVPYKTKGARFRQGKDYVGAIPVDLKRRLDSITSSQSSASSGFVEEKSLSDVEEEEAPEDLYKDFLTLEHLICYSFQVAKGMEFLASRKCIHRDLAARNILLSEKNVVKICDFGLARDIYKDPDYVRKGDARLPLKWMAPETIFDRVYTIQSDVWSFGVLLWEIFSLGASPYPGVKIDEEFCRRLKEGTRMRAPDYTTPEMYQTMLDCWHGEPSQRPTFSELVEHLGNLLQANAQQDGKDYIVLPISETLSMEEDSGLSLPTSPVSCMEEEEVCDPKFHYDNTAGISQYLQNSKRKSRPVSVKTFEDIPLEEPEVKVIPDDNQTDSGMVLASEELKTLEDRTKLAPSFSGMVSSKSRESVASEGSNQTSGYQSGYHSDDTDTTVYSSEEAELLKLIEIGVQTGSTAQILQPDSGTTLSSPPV
Protocol: The binding of purified antibodies to cell-bound cynomolgus KDR (with parental cells as negative control) was tested by FACS analysis in this assay.
Cynomolgus KDR was cloned in 3 pieces. One piece was PCR amplified from cynomolgus lung cDNA, and the remaining two pieces were PCR amplified from cynomolgus kidney cDNA. The three PCR products were inserted into pCR3.1 Bid vector. […] Transfected cells were seeded at 50,000 cells/well and incubated with 5 μg/mL of candidate antibody for one hour at 4° C. The cells were then washed and incubated with secondary antibody (Cy5-conjugated goat anti-human antibody, or Cy5-conjugated rabbit anti-goat antibody, plus 7-Amino-Actinomycin (7AAD)) for 15 minutes at 4° C. Binding between cynomolgus KDR and purified antibody was detected by FACS analysis.

[4] = target: T4, soluble KDR Ig4-7 domain (human, UniProt P35968 328-764); assay: ELISA, KDR Ig4-7 coat (1:1 diln.), antibody 0.01 ug/mL
T4 construct: domain: Ig4-7 domain; also called b-KDRIg4-7-myc-his; Ig4-7 domain of KDR; not shown: myc-his tag of the pSecTag construct
T4 sequence (P35968 328-764): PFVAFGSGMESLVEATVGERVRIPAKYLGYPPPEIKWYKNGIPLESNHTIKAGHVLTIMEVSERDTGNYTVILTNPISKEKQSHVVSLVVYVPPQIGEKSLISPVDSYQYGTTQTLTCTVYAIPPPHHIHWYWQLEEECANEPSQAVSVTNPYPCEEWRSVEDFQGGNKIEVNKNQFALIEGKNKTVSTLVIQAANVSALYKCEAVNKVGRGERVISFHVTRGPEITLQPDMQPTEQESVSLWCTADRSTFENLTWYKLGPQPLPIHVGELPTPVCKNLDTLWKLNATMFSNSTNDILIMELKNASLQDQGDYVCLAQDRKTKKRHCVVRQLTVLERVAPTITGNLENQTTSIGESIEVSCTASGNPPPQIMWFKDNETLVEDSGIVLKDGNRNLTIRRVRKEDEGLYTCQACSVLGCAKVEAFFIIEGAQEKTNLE
Protocol: as §1, §2

[5] = target: T2, human KDR; assay: FACS competition on 293T/human KDR transfectants; antibody 5 ug/mL first, then competitor VEGF165 50 ng/mL; bound VEGF165 detected
Protocol: as §3

[6] = target: T2, human KDR; assay: FACS titration of purified antibody on HUVEC cells (FACS Kd)
Protocol: The binding affinities of the purified antibodies for endogenously-expressed KDR in HUVEC cells was measured. HUVEC cells were seeded at 150,000 cells/well and incubated with titrations of purified antibody for 4 hours at 4° C. The cells were then washed and incubated with goat anti-human IgG-Fc-Cy5+5 μg/mL 7-Amino-Actinomycin (7AAD) for 30 minutes at 4° C. Bound KDR was detected using FACS analysis.

[7] = target: T2, human KDR; assay: cell-based or functional assay
[8] = target: T1, whole KDR-ECD (Cat. # 676490, …); assay: ELISA, KDR-ECD coat 5 ug/mL, antibody 0.1 ug/mL
Protocol: as §1, §2

[9] = target: T2, human KDR; assay: cell-based or functional assay; remark: listed apart in the source
[10] = target: T4, soluble KDR Ig4-7 domain; assay: ELISA, KDR Ig4-7 coat (1:1 diln.), antibody 1 ug/mL
Protocol: as §1, §2

[11] = target: T1, whole KDR-ECD (Cat. # 676490, …); assay: ELISA, KDR-ECD coat 5 ug/mL, antibody 0.01 ug/mL
Protocol: as §1, §2

[12] = target: T4, soluble KDR Ig4-7 domain; assay: ELISA, KDR Ig4-7 coat (1:1 diln.), antibody 0.1 ug/mL
Protocol: as §1, §2

[13] = target: T2, human KDR; assay: cell-based or functional assay; remark: listed apart in the source
[14] = target: T5, mouse KDR (Flk-1)/Fc (Cat. #443-KD/CF, R&D Systems, Inc.) (mouse, UniProt P35918 20-762); assay: ELISA, Flk-1 coat 5 ug/mL, antibody 0.01 ug/mL
T5 construct: Bought reagent; also called mouse VEGFR2; KDR mouse ortholog; not shown: Fc of the bought fusion protein
T5 sequence (P35918 20-762 limits assumed): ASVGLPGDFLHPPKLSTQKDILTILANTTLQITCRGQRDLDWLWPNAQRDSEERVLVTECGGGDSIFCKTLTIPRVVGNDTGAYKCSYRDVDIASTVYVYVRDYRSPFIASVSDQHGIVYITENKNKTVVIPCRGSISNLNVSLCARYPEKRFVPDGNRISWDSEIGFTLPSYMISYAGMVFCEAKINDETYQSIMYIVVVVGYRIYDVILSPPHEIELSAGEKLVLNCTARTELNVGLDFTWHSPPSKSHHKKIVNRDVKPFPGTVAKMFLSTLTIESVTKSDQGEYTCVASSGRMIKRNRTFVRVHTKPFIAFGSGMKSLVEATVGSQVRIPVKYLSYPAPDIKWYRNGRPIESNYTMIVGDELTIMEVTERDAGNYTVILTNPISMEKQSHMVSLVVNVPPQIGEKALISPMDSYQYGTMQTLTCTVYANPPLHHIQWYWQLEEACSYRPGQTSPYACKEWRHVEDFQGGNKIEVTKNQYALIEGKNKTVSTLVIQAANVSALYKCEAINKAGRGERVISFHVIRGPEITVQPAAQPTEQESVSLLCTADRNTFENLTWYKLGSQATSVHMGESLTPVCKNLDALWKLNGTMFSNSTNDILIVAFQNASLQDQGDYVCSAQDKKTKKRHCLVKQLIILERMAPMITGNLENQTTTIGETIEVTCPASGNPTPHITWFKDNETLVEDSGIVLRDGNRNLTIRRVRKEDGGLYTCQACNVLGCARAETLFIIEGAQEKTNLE
Protocol: as §1, §2

[15] = target: T5, mouse KDR (Flk-1)/Fc (Cat. #443-KD/CF, …); assay: ELISA, Flk-1 coat 5 ug/mL, antibody 1 ug/mL
Protocol: as §1, §2

[16] = target: T5, mouse KDR (Flk-1)/Fc (Cat. #443-KD/CF, …); assay: ELISA, Flk-1 coat 5 ug/mL, antibody 0.1 ug/mL
Protocol: as §1, §2

| Binder | ELISA reading [1] | ELISA reading [4] | Kd [6] | 6-keto Prostaglandin F1α release, EC50 (nM), Average [7] | 6-keto Prostaglandin F1α release, Maximum Inhibition (% Inhibition), Average [7] | 6-keto Prostaglandin F1α release, Maximum Inhibition (% Inhibition), N = 1 (200 nM) [7] | 6-keto Prostaglandin F1α release, Maximum Inhibition (% Inhibition), N = 2 (333 nM) [7] | ELISA reading [8] | KDR tyrosine phosphorylation in HUVEC, EC50 (nM), Average [9] | KDR tyrosine phosphorylation in HUVEC, EC50 (nM), N = 1 [9] | KDR tyrosine phosphorylation in HUVEC, EC50 (nM), N = 2 [9] | KDR tyrosine phosphorylation in HUVEC, Maximum Inhibition at 100 nM (% Inhibition), Average [9] | KDR tyrosine phosphorylation in HUVEC, Maximum Inhibition at 100 nM (% Inhibition), N = 1 [9] | KDR tyrosine phosphorylation in HUVEC, Maximum Inhibition at 100 nM (% Inhibition), N = 2 [9] | ELISA reading [10] | ELISA reading [11] | ELISA reading [12] | HUVEC survival, Maximum Inhibition at 50 nM (% Inhibition), Average [13] | HUVEC survival, Maximum Inhibition at 50 nM (% Inhibition), N = 1 [13] | HUVEC survival, Maximum Inhibition at 50 nM (% Inhibition), N = 2 [13] | further results |
| --- | --- | --- | --- | --- | --- | --- | --- | --- | --- | --- | --- | --- | --- | --- | --- | --- | --- | --- | --- | --- | --- |
| B1 | 1.97 | 0.08 | 5.4 nM | 5.6 nM | 49% | 49% | 49% | 0.111 | 3.1 nM | 3.4 nM | 2.9 nM | 78% | 77% | 79% | 0.078 | 0.093 | 0.075 | 95% | 95% | 94% | % Inhibition [2]: 9%; FACS Geometric Mean Fluorescence [3]: 89.7; FACS Geometric Mean Fluorescence (bound VEGF165) [5]: 118; 6-keto Prostaglandin F1α release, EC50 (nM), N = 1 [7]: 5.5 nM; 6-keto Prostaglandin F1α release, EC50 (nM), N = 2 [7]: 5.7 nM |
| B2 | 2.47 | 1.36 | 0.9 nM | – | 3% | 0% | 6% | 0.31 | 0.4 nM | 0.6 nM | 0.2 nM | 29% | 36% | 22% | 3.04 | 0.117 | 2.77 | -5% | -9% | -1% | – |
| B3 | 2.62 | 1.14 | 0.5 nM | – | 5% | 2% | 8% | 0.306 | 0.4 nM | 0.5 nM | 0.4 nM | 32% | 33% | 30% | 3.02 | 0.099 | 2.36 | 11% | 4% | 18% | ELISA reading [14]: 1.14; ELISA reading [15]: 3.04; ELISA reading [16]: 2.35 |
| B4 | 2.36 | 0.933 | 0.2 nM | 23.1 nM | 42% | 28% | 55% | 0.307 | 0.6 nM | 0.6 nM | 0.6 nM | 73% | 69% | 77% | 2.65 | 0.103 | 2.31 | 72% | 73% | 72% | ELISA reading [14]: 0.988; 6-keto Prostaglandin F1α release, EC50 (nM), N = 1 [7]: 11.2 nM; 6-keto Prostaglandin F1α release, EC50 (nM), N = 2 [7]: 35.1 nM; ELISA reading [15]: 2.67; ELISA reading [16]: 2.14 |
